In IntAct's records for PubMed 10531343:

B1: Synaptotagmin-10 (Mus musculus), Q9R0N4 (parent)
chain: MSFRKEDGVSSLCQKALHIITELCFAGQVEWDKCSGIFPADRSGQGGGGTDISVSLLAVVVSFCGLALLVVSLFVFWKLCWPCWKSKLVAPNLSVLPQSISSAPTEVFETEEKKEVEENEKPAPKAIEPAIKISHTSPDIPAEVQTALKEHLIKHARVQRQTTEPTSSSRHNSFRRHLPRQMNVSSVDFSVGTEPILQRGETRTSIGRIKPELYKQKSVDSEGNRKDDVKTCGKLNFALQYDYENELLVVKIIKALDLPAKDFTGTSDPYVKIYLLPDRKKKFQTRVHRKTLNPLFDELFQFPVVYDQLSNRKLHFSIYDFDRFSRHDMIGEVILDNLFEVSDLSREATVWKDIHCATTESIDLGEIMFSLCYLPTAGRMTLTVIKCRNLKAMDITGSSDPYVKVSLMCEGRRLKKRKTTTKKNTLNPVYNEAIIFDIPPENVDQVSLCIAVMDYDRVGHNEVIGVCRTGLDAEGLGRDHWNEMLAYHRKPITHWHPLLELPGRATSFDSQGSCSSPRPPSTP
partner: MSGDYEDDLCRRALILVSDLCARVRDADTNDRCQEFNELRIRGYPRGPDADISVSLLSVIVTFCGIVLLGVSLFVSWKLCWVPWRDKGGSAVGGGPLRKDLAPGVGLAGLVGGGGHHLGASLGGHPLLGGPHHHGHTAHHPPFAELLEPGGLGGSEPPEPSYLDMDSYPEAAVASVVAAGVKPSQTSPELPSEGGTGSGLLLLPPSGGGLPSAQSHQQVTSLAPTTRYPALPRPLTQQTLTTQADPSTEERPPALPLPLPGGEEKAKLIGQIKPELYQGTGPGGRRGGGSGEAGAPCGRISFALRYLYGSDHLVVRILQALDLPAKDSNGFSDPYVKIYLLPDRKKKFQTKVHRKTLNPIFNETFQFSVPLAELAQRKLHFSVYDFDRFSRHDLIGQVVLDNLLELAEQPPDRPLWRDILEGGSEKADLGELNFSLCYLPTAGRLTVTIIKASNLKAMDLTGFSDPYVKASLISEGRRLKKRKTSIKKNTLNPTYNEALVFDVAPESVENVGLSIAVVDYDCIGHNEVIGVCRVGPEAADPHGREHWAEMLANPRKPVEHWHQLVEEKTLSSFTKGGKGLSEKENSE
B2: Synaptotagmin-6 (Mus musculus), Q9R0N8 (parent)
chain: MSGVWGAGGPRCQAALAVLASLCRARPPPLGLDVETCRSFELQSPEQSPSAADSGTSVSLLAVVVIVCGVALVAVFLFLFWKLCWMPWRKKEASSPSSANPASETLQSPSSRGNMADKLKDPSALGFLEAAVKISHTSPDIPAEVQMSVKEHIMRHTKLQRQTTEPASSTRHTSFKRHLPRQMHVSSVDYGNELPPAAAEQPTSIGRIKPELYKQKSVDGDDAKSEAAKSCGKINFSLRYDYESETLIVRILKAFDLPAKDFCGSSDPYVKIYLLPDRKCKLQTRVHRKTLNPTFDENFHFPVPYEELADRKLHLSVFDFDRFSRHDMIGEVILDNLFEASDLSRETSIWKDIQYATSESVDLGEIMFSLCYLPTAGRLTLTVIKCRNLKAMDITGYSDPYVKVSLLCDGRRLKKKKTTIKKNTLNPIYNEAIIFDIPPENMDQVSLLISVMDYDRVGHNEIIGVCRVGINAEGLGRDHWNEMLAYPRKPIAHWHSLVEVKKSFKEGTPRL
partner: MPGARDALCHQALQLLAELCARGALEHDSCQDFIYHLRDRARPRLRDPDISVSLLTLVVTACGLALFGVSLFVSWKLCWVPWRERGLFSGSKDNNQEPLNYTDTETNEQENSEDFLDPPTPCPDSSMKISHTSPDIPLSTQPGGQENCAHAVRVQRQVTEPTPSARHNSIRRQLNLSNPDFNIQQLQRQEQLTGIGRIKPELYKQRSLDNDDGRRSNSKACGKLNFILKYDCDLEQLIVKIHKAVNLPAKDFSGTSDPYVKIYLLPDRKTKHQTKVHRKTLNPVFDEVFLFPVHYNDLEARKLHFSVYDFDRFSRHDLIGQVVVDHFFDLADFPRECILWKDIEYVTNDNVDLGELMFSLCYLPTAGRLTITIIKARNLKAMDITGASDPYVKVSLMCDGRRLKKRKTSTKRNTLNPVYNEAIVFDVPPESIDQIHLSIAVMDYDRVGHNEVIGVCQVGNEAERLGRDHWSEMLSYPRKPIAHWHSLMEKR
B3: Synaptotagmin-3 (Mus musculus), O35681 (parent)
chain: B1 partner
partner: B2 chain
B4: Synaptotagmin-9 (Mus musculus), Q9R0N9 (parent)
chain: B2 partner
partner: B1 chain
B5: Synaptotagmin-6 (Mus musculus), Q9R0N8 (parent)
chain: B2 chain
partner: B1 partner
B6: Synaptotagmin-9 (Mus musculus), Q9R0N9 (parent)
chain: B2 partner
partner: B1 partner

Variants of: B1
Details: with syt3_mouse Syt3, O35681

effect of a mutation on the interaction	Variant
decreasing interaction	MSFRKEDGVSSLAQKALHIITELCFAGQVEWDKCSGIFPADRSGQGGGGTDISVSLLAVVVSFCGLALLVVSLFVFWKLCWPCWKSKLVAPNLSVLPQSISSAPTEVFETEEKKEVEENEKPAPKAIEPAIKISHTSPDIPAEVQTALKEHLIKHARVQRQTTEPTSSSRHNSFRRHLPRQMNVSSVDFSVGTEPILQRGETRTSIGRIKPELYKQKSVDSEGNRKDDVKTCGKLNFALQYDYENELLVVKIIKALDLPAKDFTGTSDPYVKIYLLPDRKKKFQTRVHRKTLNPLFDELFQFPVVYDQLSNRKLHFSIYDFDRFSRHDMIGEVILDNLFEVSDLSREATVWKDIHCATTESIDLGEIMFSLCYLPTAGRMTLTVIKCRNLKAMDITGSSDPYVKVSLMCEGRRLKKRKTTTKKNTLNPVYNEAIIFDIPPENVDQVSLCIAVMDYDRVGHNEVIGVCRTGLDAEGLGRDHWNEMLAYHRKPITHWHPLLELPGRATSFDSQGSCSSPRPPSTP [C13A]

Variants of: B2
Details: with syt9_mouse Syt9, Q9R0N9

effect of a mutation on the interaction	Variant
decreasing interaction	MSGVWGAGGPRAQAALAVLASLCRARPPPLGLDVETCRSFELQSPEQSPSAADSGTSVSLLAVVVIVCGVALVAVFLFLFWKLCWMPWRKKEASSPSSANPASETLQSPSSRGNMADKLKDPSALGFLEAAVKISHTSPDIPAEVQMSVKEHIMRHTKLQRQTTEPASSTRHTSFKRHLPRQMHVSSVDYGNELPPAAAEQPTSIGRIKPELYKQKSVDGDDAKSEAAKSCGKINFSLRYDYESETLIVRILKAFDLPAKDFCGSSDPYVKIYLLPDRKCKLQTRVHRKTLNPTFDENFHFPVPYEELADRKLHLSVFDFDRFSRHDMIGEVILDNLFEASDLSRETSIWKDIQYATSESVDLGEIMFSLCYLPTAGRLTLTVIKCRNLKAMDITGYSDPYVKVSLLCDGRRLKKKKTTIKKNTLNPIYNEAIIFDIPPENMDQVSLLISVMDYDRVGHNEIIGVCRVGINAEGLGRDHWNEMLAYPRKPIAHWHSLVEVKKSFKEGTPRL [C12A]

Variants of: B3
Details: with syt6_mouse Syt6, Q9R0N8

effect of a mutation on the interaction	Variant
decreasing interaction	MSGDYEDDLARRALILVSDLCARVRDADTNDRCQEFNELRIRGYPRGPDADISVSLLSVIVTFCGIVLLGVSLFVSWKLCWVPWRDKGGSAVGGGPLRKDLAPGVGLAGLVGGGGHHLGASLGGHPLLGGPHHHGHTAHHPPFAELLEPGGLGGSEPPEPSYLDMDSYPEAAVASVVAAGVKPSQTSPELPSEGGTGSGLLLLPPSGGGLPSAQSHQQVTSLAPTTRYPALPRPLTQQTLTTQADPSTEERPPALPLPLPGGEEKAKLIGQIKPELYQGTGPGGRRGGGSGEAGAPCGRISFALRYLYGSDHLVVRILQALDLPAKDSNGFSDPYVKIYLLPDRKKKFQTKVHRKTLNPIFNETFQFSVPLAELAQRKLHFSVYDFDRFSRHDLIGQVVLDNLLELAEQPPDRPLWRDILEGGSEKADLGELNFSLCYLPTAGRLTVTIIKASNLKAMDLTGFSDPYVKASLISEGRRLKKRKTSIKKNTLNPTYNEALVFDVAPESVENVGLSIAVVDYDCIGHNEVIGVCRVGPEAADPHGREHWAEMLANPRKPVEHWHQLVEEKTLSSFTKGGKGLSEKENSE [C10A]

Variants of: B4
Details: with syt10_mouse Syt10, Q9R0N4

effect of a mutation on the interaction	Variant
decreasing interaction	MPGARDALAHQALQLLAELCARGALEHDSCQDFIYHLRDRARPRLRDPDISVSLLTLVVTACGLALFGVSLFVSWKLCWVPWRERGLFSGSKDNNQEPLNYTDTETNEQENSEDFLDPPTPCPDSSMKISHTSPDIPLSTQPGGQENCAHAVRVQRQVTEPTPSARHNSIRRQLNLSNPDFNIQQLQRQEQLTGIGRIKPELYKQRSLDNDDGRRSNSKACGKLNFILKYDCDLEQLIVKIHKAVNLPAKDFSGTSDPYVKIYLLPDRKTKHQTKVHRKTLNPVFDEVFLFPVHYNDLEARKLHFSVYDFDRFSRHDLIGQVVVDHFFDLADFPRECILWKDIEYVTNDNVDLGELMFSLCYLPTAGRLTITIIKARNLKAMDITGASDPYVKVSLMCDGRRLKKRKTSTKRNTLNPVYNEAIVFDVPPESIDQIHLSIAVMDYDRVGHNEVIGVCQVGNEAERLGRDHWSEMLSYPRKPIAHWHSLMEKR [C9A]

Variants of: B5
Details: with syt3_mouse Syt3, O35681

effect of a mutation on the interaction	Variant
decreasing interaction	MSGVWGAGGPRAQAALAVLASLCRARPPPLGLDVETCRSFELQSPEQSPSAADSGTSVSLLAVVVIVCGVALVAVFLFLFWKLCWMPWRKKEASSPSSANPASETLQSPSSRGNMADKLKDPSALGFLEAAVKISHTSPDIPAEVQMSVKEHIMRHTKLQRQTTEPASSTRHTSFKRHLPRQMHVSSVDYGNELPPAAAEQPTSIGRIKPELYKQKSVDGDDAKSEAAKSCGKINFSLRYDYESETLIVRILKAFDLPAKDFCGSSDPYVKIYLLPDRKCKLQTRVHRKTLNPTFDENFHFPVPYEELADRKLHLSVFDFDRFSRHDMIGEVILDNLFEASDLSRETSIWKDIQYATSESVDLGEIMFSLCYLPTAGRLTLTVIKCRNLKAMDITGYSDPYVKVSLLCDGRRLKKKKTTIKKNTLNPIYNEAIIFDIPPENMDQVSLLISVMDYDRVGHNEIIGVCRVGINAEGLGRDHWNEMLAYPRKPIAHWHSLVEVKKSFKEGTPRL [C12A]

Variants of: B6
Details: with syt3_mouse Syt3, O35681

effect of a mutation on the interaction	Variant
decreasing interaction	MPGARDALAHQALQLLAELCARGALEHDSCQDFIYHLRDRARPRLRDPDISVSLLTLVVTACGLALFGVSLFVSWKLCWVPWRERGLFSGSKDNNQEPLNYTDTETNEQENSEDFLDPPTPCPDSSMKISHTSPDIPLSTQPGGQENCAHAVRVQRQVTEPTPSARHNSIRRQLNLSNPDFNIQQLQRQEQLTGIGRIKPELYKQRSLDNDDGRRSNSKACGKLNFILKYDCDLEQLIVKIHKAVNLPAKDFSGTSDPYVKIYLLPDRKTKHQTKVHRKTLNPVFDEVFLFPVHYNDLEARKLHFSVYDFDRFSRHDLIGQVVVDHFFDLADFPRECILWKDIEYVTNDNVDLGELMFSLCYLPTAGRLTITIIKARNLKAMDITGASDPYVKVSLMCDGRRLKKRKTSTKRNTLNPVYNEAIVFDVPPESIDQIHLSIAVMDYDRVGHNEVIGVCQVGNEAERLGRDHWSEMLSYPRKPIAHWHSLMEKR [C9A]
